Measured values published in patent US20020137918A1.
Substitutions are numbered along the chain they refer to. Names and notes keep the numbering of the source. Blank lines part the entries; values can stand above or below the molecule they belong to.

Assays:
human κ-chain (human) [1] = experiment: Kd at pH 8, method not stated; one Kd given for the mutation, ticked in PpL and Y64W PpL
human κ-chain (human) [2] = experiment: affinity chromatography, Y53F PpL coupled to agarose, human κ-chain eluted by falling pH
human IgG (human) [3] = experiment: competitive ELISA at pH 8.0, PpL on the plate
human κ-chain (human) [4] = experiment: method not given
human IgG (human) [5] = experiment: method not given
human IgG (human) [6] = experiment: competitive ELISA at pH 8.0, against the Kd of PpL (112 nM)
human κ-chain (human) [7] = experiment: affinity chromatography, Y53F PpL coupled to agarose, human κ-chain eluted by rising pH
human κ-chain (human) [8] = experiment: affinity chromatography, Y53F PpL coupled to agarose, human κ-chain eluted by rising KCl
human κ-chain (human) [9] = experiment: affinity chromatography, Y64W PpL coupled to agarose, human κ-chain eluted by falling pH
human IgG (human) [10] = experiment: competitive ELISA, PpL on the plate, human IgG
human κ-chain (human) [11] = experiment: affinity chromatography, Y64W PpL coupled to agarose, human κ-chain eluted by rising pH
human κ-chain (human) [12] = experiment: tryptophan fluorescence, complex against the sum of the spectra of the single proteins
human κ-chain (human) [13] = experiment: affinity chromatography, Y64W PpL coupled to agarose, human κ-chain eluted by rising KCl
human κ-chain (human) [14] = experiment: Kd at pH 8, method not stated; mutation ticked in Y64W PpL
human κ-chain (human) [15] = experiment: Kd at pH 8, method not stated; mutation ticked in F39W PpL
human IgG (human) [16] = experiment: competitive ELISA; told as 'previously determined for PpL'
human IgG (human) [17] = experiment: competitive ELISA, human IgG
human κ-chain (human) [18] = experiment: affinity chromatography, PpL coupled to agarose, human κ-chain eluted by rising KCl
human κ-chain (human) [19] = experiment: affinity chromatography, PpL coupled to agarose, human κ-chain eluted by falling pH
human κ-chain (human) [20] = experiment: affinity chromatography, PpL coupled to agarose, human κ-chain eluted by rising pH
human κ-chain (human) [21] = experiment: Kd at pH 8, method not stated; mutation ticked in PpL
human κ-chain (human) [22] = experiment: fluorescence titration of F39W into 0.75 µM kappa chain, 18 °C, pH 8
human κ-chain (human) [23] = experiment: competitive fluorescence titration, PpL2Asn as competitor
human κ-chain (human) [24] = experiment: tryptophan fluorescence, complex against the sum of the single proteins
human κ-chain (human) [25] = experiment: Kd at pH 8, method not stated; one Kd given for the mutation, ticked in Y64W PpL and F39W PpL
human IgG (human) [26] = experiment: competitive ELISA, Wt PpL immobilized, human IgG
human κ-chain (human) [27] = experiment: isothermal titration calorimetry, 800 µM L57H PpL into 40 µM kappa light chain, 25 °C, pH 8.0
human κ-chain (human) [28] = experiment: stopped flow fluorescence, equilibrium Kd
human κ-chain (human) [29] = experiment: stopped flow fluorescence, encounter complex
human κ-chain (human) [30] = experiment: stopped flow fluorescence

B1: Y64W PpL (protein)
chain: MNIKFAGKETPETPEEPKEEVTIKVNLIFADGKIQTAEFKGTFEEATAEAYRYADLLAKVNGEWTADLEDGGNHMNIKFAGK
elution condition, decreased pH (human κ-chain (human) [9]): 2.03 pH | Kd (human IgG (human) [10]): 129 nM | elution condition, increased pH (human κ-chain (human) [11]): 10.1 pH | quench in fluorescence emission of the complex (human κ-chain (human) [12]): 9% | elution condition, increase KCl (human κ-chain (human) [13]): 0.96 M

B2: L57D Y64W PpL (protein)
chain: B1 chain with L57D
Kd (human κ-chain (human) [14]): 2000 nM

B3: N76D F39W PpL (protein)
chain: B1 chain with F39W, W64Y, N76D
Kd (human κ-chain (human) [15]): 400 nM

B4: Y53H F39W PpL (protein)
chain: B1 chain with F39W, Y53H, W64Y
Kd (human κ-chain (human) [15]): 500 nM

B5: PpL (protein)
chain: B1 chain with W64Y
Kd (human IgG (human) [16]): 112 nM | Kd (human IgG (human) [17]): 160 nM | elution condition, increase KCl (human κ-chain (human) [18]): 0.95 M | elution condition, decreased pH (human κ-chain (human) [19]): 1.96 pH | elution condition, increased pH (human κ-chain (human) [20]): 10.2 pH

B6: F39H Y64W PpL (protein)
chain: B1 chain with F39H
Kd (human κ-chain (human) [1]): 1000 nM

B7: F39W PpL (protein)
chain: B1 chain with F39W, W64Y
Kd (human κ-chain (human) [21]): 160 nM | Kd (human κ-chain (human) [22]): 161 nM | Kdapp in the presence of 5 µM PpL2Asn (human κ-chain (human) [23]): 310 nM

B10: F39H PpL (protein)
chain: B1 chain with F39H, W64Y
Kd (human κ-chain (human) [1]): 1000 nM

B12: L57H PpL (protein)
chain: B1 chain with L57H, W64Y
Kd (human κ-chain (human) [1]): 6000 nM | Kd (human IgG (human) [26]): 4200 nM | Kd (human κ-chain (human) [27]): 5200 nM

Second part, the molecule after the results:

Kd (human κ-chain (human) [1]): 1700 nM | elution condition, decreased pH (human κ-chain (human) [2]): 3.2 pH | Kd (human IgG (human) [3]): 3200 nM | fold reduction in affinity against PpL (human κ-chain (human) [4]): 27 fold | Kd (human IgG (human) [5]): 2000 nM | fold increase in Kd against PpL (human IgG (human) [6]): 25 fold | elution condition, increased pH (human κ-chain (human) [7]): 9.6 pH | elution condition, increase KCl (human κ-chain (human) [8]): 0.75 M
Molecule: Y53F PpL

Kd (human κ-chain (human) [1]): 1700 nM | Kd (human IgG (human) [3]): 3320 nM | increase in fluorescence signal of the complex (human κ-chain (human) [24]): 10%
B8: Y53F Y64W PpL (protein)
chain: B1 chain with Y53F

Kd (human κ-chain (human) [25]): 300 nM
B9: Q35E F39W PpL (protein)
chain: B1 chain with Q35E, F39W, W64Y

Kd (human κ-chain (human) [25]): 300 nM
B11: Q35E Y64W PpL (protein)
chain: B1 chain with Q35E

Kd (human κ-chain (human) [28]): 5400 nM | Kd (human κ-chain (human) [1]): 6000 nM | pre-equilibrium Kd (human κ-chain (human) [29]): 6800 nM | fold of equilibrium Kd against Y64W PpL (human κ-chain (human) [30]): 30 fold | fold of pre-equilibrium Kd against Y64W PpL (human κ-chain (human) [30]): 2 fold
B13: L57H Y64W PpL (protein)
chain: B1 chain with L57H
